The values that follow come from patent US20130039936A1 (published 2013).

The chains are these.
B1: POTE 252-9V (peptide)
peptide: KLMAKALLV
B2: POTE 252-1Y (peptide)
peptide: YLMAKALLL
B3: POTE 252-260 (peptide)
peptide: KLMAKALLL
B4: POTE 323-331 (peptide)
peptide: LLLEQNVDV
B5: POTE 553-561 (peptide)
peptide: KILEEIESV
B6: POTE 272-280 (peptide)
peptide: GLTPLLLGV
B7: POTE 323-3F (peptide)
peptide: LLFEQNVDV
B8: POTE 252-3F (peptide)
peptide: KLFAKALLL
B9: POTE 252-7A (peptide)
peptide: KLMAKAALL
B10: POTE 252-3A (peptide)
peptide: KLAAKALLL
B11: POTE 323-7A (peptide)
peptide: LLLEQNADV
B12: POTE 323-3A (peptide)
peptide: LLAEQNVDV
B13: POTE 323-1Y (peptide)
peptide: YLLEQNVDV
B14: POTE 553-7A (peptide)
peptide: KILEEIASV
B15: POTE 553-2L (peptide)
peptide: KLLEEIESV
B16: POTE 553-1Y (peptide)
peptide: YILEEIESV
B17: POTE 553-3F (peptide)
peptide: KIFEEIESV

In one experiment the target is T1, HLA-A2 molecule on T2 cells (human).
T1 construct: also called HLA-A2.1; HLA-A2 molecules
As to the kind of experiment: T2 binding assay, FI0.5 against wild type POTE 252. How it is done: (§1) Peptide binding capacity to the HLA-A2 molecule was measured by using the T2 cell line according to a protocol described previously (Peters et al., Bioinformatics 19(14):1765-1772, 2003). […] Cells were washed once with cold HBSS containing 0.1% BSA and incubated for 30 minutes at 4° C. with anti-HLA-A2.1 BB7.2 monoclonal antibody (1:40 dilution from hybridoma supernatant). After washing, cells were stained with FITC-labeled goat anti-mouse immunoglobulin (BD, San Jose, Calif.), and the level of HLA expression was measured by flow cytometry. HLA-A2 expression was quantified as fluorescence index (FI) according to the following formula: FI=[(geometric mean fluorescence intensity with peptide-geometric mean fluorescence intensity without peptide)/geometric mean fluorescence intensity without peptide]. Background fluorescence without BB7.2 was subtracted for each individual value. To compare the different peptides, FI_{0.5}, the peptide concentration that increases HLA-A2.1 expression by 50% over no peptide control background, was calculated from the titration curve for each peptide.
As for B1, the “fold lower FI0.5 than POTE 252” value is about 2 fold.
On to B2, for which the “fold lower FI0.5 than POTE 252” value was about 2 fold.

For the next experiment, the target named is T1, HLA-A2 molecule on T2 cells. Description: T2 binding assay (flow cytometry, BB7.2 anti-HLA-A2 stain of peptide-loaded T2 cells). The procedure:
Background fluorescence without BB7.2 was subtracted for each individual value. To compare the different peptides, FI_{0.5} (the peptide concentration that increases HLA-A2.1 expression by 50% over no peptide control background) was calculated from the titration curve for each peptide. […] Each assay was performed in triplicate, and data in this figure are representative of two experiments with similar results.
as §1
The binding affinity of the predicted peptides with HLA-A2 molecules was measured by the T2 binding assay.
For B3, the FI0.5 came out at 1.6 µM.
Take B4: the FI0.5 was 0.8 µM.
Consider B5, for which the FI0.5 was 5.6 µM.
Turning to B6, the FI0.5 stood at 0.9 µM.

The target is the same in a further experiment. As to the kind of experiment: T2 binding assay, FI0.5 against wild type POTE 323. How it is done:
as §1
As to B7, the “fold better FI0.5 than wild-type POTE 323” value is about 3 fold.

The target is the same in the next experiment. As to the kind of experiment: T2 binding assay (flow cytometry, BB7.2 anti-HLA-A2 stain of peptide-loaded T2 cells). The source holds these as a separate data set. The procedure: as §1, with “peptide. […]” for “peptide.”
(In general: In flow cytometry, cells or beads pass a laser one at a time.)
Consider B3, for which the FI0.5 was determined as 1.5 µM.
Still for that read-out and setting: then B8, with 1.5 µM; and B1, with 0.8 µM; and B9, with 4 µM.
On the same count and under the same terms, as for B10, the figure is 16.9 µM; as for B2, 0.9 µM; as for B4, 0.3 µM.
B11: the FI0.5 came out at 2.78 µM.
As to B12, the FI0.5 was 0.4 µM.
On the same count and under the same terms, as for B13, the figure is 0.25 µM; as for B7, 0.09 µM; as for B5, 2.6 µM.
The same measure, in the same setting: then B14, with 0.2 µM.
In turn, B15 showed an FI0.5 of 0.1 µM.
On to B16, for which the FI0.5 is 0.024 µM.
Consider B17, for which the FI0.5 amounted to 0.3 µM.
